Series [1] concerns the target T1, STF-1 + Pbx1 heterodimer (UniProt P52947;P40424 P52947:1-283,P40424:1-430). In words: EMSA; minimal effect on cooperativity. The following applies: tags: STF-1 recombinant from E. coli; Pbx1 in vitro translated in reticulocyte lysate; label: 32P. The source says:
Gel mobility shift assay using TSE II oligonucleotide plus STF-1 and/or Pbx as indicated over each lane. TNT, control lysate. […] Off-rate analysis of STF-1 and STF-1 Pbx complexes using somatostatin TSE II oligonucleotide as probe. Time (in minutes) after addition of excess unlabeled TSE II oligo as indicated. Complexes C1 and C2, corresponding to STF-1 monomer and STF-1/PBX heterodimer, respectively, as indicated. […] TSEII, wild-type TSE II oligonucleotide. P and FLAT, insulin I promoter elements which recognize STF-1 with high affinity. TSEI, somatostatin promoter element which binds STF-1. PBX, in vitro translated PBX protein added to binding reactions; STF, full length recombinant STF-1 protein. […] Brackets indicate consensus TAAT motifs which were targeted for mutagenesis. […] Transient transfection assay of GC cells using STF-1 and E2A-Pbx effector plasmids as indicated below each bar. […] Activities were normalized to co-transfected RSV-CAT control plasmid.
Gel mobility shift assays were performed exactly as described previously (20) using 0.1 ng of end-labeled double stranded oligonucleotide whose sequences are presented in FIG. 2C. For off-rate analysis, the TSEII probe was first incubated with the proteins at room temperature for 30 minutes, then a 1000-fold excess of unlabeled TSEII oligonucleotide was added and aliquots were loaded at various time points on a running gel. […]
(In general: A gel shift assay detects complexes by their altered migration in electrophoresis.)

For series [2], the target named is T1, STF-1 + Pbx1 heterodimer. Put plainly: EMSA; no heteromeric complex; no synergy in reporter assay. The conditions noted are these: tags: STF-1 recombinant from E. coli; Pbx1 in vitro translated in reticulocyte lysate; label: 32P. Here is the method:
(§1) Gel mobility shift assays were performed exactly as described previously (20) using 0.1 ng of end-labeled double stranded oligonucleotide whose sequences are presented in FIG. 2C. For off-rate analysis, the TSEII probe was first incubated with the proteins at room temperature for 30 minutes, then a 1000-fold excess of unlabeled TSEII oligonucleotide was added and aliquots were loaded at various time points on a running gel. In supershift assays, TU6 nuclear cell extract was preincubated with 1 µl of Pbx (11) or STF-antiserum (20) for 15 minutes at room temperature before adding the TSEII probe.
To determine whether Pbx and STF-1 can bind cooperatively to other STF-1 target sites besides TSEII, gel shift assays were performed with the recombinant STF-1 and Pbx proteins on the somatostatin TSEI or insulin P and Flat elements, sites which bind STF-1 and which are required for islet cell restricted expression of the rat somatostatin and insulin I genes, respectively, in pancreatic cells (FIG. 2D and FIG. 2E). In contrast to the TSEII element (FIG. 2D, lanes 1–4), no heteromeric STF-1-Pbx complex was observed on the TSEI, P or FLAT elements. Indeed, heteromeric STF-1 complexes are also undetectable when the TSEI, P, or FLAT elements are used in gel shift assays of crude pancreatic cell extracts (data not shown) (20). […]

The target of series [3] is STF-1 FPWMK to AAGGQ mutant (UniProt P52947 P52947:1-283, FPWMK to AAGGQ). In words: EMSA; wild-type binding activity. The following applies: label: 32P.
Series [4] has as its target T2, STF-1 (IPF1/IDX-1/PDX1) (UniProt P52947 P52947:1-283). Put plainly: EMSA; high affinity site. The conditions noted are these: tags: GST fusion (pGEX3X, E. coli), GST removable by factor Xa; label: 32P.
In series [5] the target is T1, STF-1 + Pbx1 heterodimer. Put plainly: EMSA; no heteromeric complex. The following applies: tags: STF-1 recombinant from E. coli; Pbx1 in vitro translated in reticulocyte lysate; label: 32P. The procedure:
as §1
(§2) To determine whether Pbx and STF-1 can bind cooperatively to other STF-1 target sites besides TSEII, gel shift assays were performed with the recombinant STF-1 and Pbx proteins on the somatostatin TSEI or insulin P and Flat elements, sites which bind STF-1 and which are required for islet cell restricted expression of the rat somatostatin and insulin I genes, respectively, in pancreatic cells (FIG. 2D and FIG. 2E). In contrast to the TSEII element (FIG. 2D, lanes 1–4), no heteromeric STF-1-Pbx complex was observed on the TSEI, P or FLAT elements. Indeed, heteromeric STF-1 complexes are also undetectable when the TSEI, P, or FLAT elements are used in gel shift assays of crude pancreatic cell extracts (data not shown) (20).

Series [6] has as its target T2, STF-1 (IPF1/IDX-1/PDX1). In words: EMSA. The conditions noted are these: tags: GST fusion (pGEX3X, E. coli), GST removable by factor Xa; label: 32P. Here is the method:
as §1, §2

The text below walks through data of US5849493, “Screening assay for compounds stimulating somatostatin transcription factor -1 binding to an STF-1 binding site” (Research Development Foundation).

T1 sequence (P52947 whole entry, chain 1 of 2): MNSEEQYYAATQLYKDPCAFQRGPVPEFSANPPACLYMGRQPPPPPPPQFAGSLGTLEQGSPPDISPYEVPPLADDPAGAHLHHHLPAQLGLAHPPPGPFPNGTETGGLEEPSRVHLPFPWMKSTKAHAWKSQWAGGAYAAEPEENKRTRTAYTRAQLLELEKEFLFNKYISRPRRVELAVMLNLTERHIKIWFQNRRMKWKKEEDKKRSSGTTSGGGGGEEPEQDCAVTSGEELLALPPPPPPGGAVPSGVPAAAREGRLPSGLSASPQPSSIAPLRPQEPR
T1 sequence (P40424 whole entry, chain 2 of 2): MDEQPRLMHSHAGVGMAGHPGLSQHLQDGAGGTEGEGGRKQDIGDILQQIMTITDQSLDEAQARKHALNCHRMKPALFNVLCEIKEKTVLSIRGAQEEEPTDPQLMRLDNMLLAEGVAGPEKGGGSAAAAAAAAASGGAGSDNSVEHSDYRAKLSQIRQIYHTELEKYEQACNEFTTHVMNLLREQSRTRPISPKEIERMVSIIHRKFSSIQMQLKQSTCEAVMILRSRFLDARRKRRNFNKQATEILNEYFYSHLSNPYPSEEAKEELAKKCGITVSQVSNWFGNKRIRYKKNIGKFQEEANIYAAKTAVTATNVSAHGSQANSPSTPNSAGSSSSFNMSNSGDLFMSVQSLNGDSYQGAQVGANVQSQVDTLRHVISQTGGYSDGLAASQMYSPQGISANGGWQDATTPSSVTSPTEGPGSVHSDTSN
T2 sequence (P52947 whole entry, the tested form may be a part, one chain of several): as the sequence (P52947 whole entry, chain 1 of 2) above
Sequence of STF-1 FPWMK to AAGGQ mutant (P52947 other isoform, or with tags, fused parts or gaps FPWMK to AAGGQ | mutant): as the sequence (P52947 whole entry, chain 1 of 2) above, with F119A, P120A, W121G, M122G, K123Q counted along it

B1: TSEII M3 (dsDNA)
DNA 1: GATCTCAGTAATTATACATGCA
DNA 2: GTACTGCATGTATAATTACTGA
Regarding B1, the binding result in the series with STF-1 + Pbx1 heterodimer [1] is on record as “binds”.

B2: insulin I P element (dsDNA)
DNA 1: GATCTAGAGCCCTTAATGGGCCAAA
DNA 2: GATCTTTGGCCCATTAAGGGCTCTA
B2: the binding result is given as “no binding” with STF-1 + Pbx1 heterodimer [2], “binds” in series [3] and “binds” with STF-1 (IPF1/IDX-1/PDX1) [4].

B3: somatostatin TSEI (dsDNA)
DNA 1: GATCTTGCGAGGCTAATGGTGCG
DNA 2: GTACCGCACCATTAGCCTCGCAA
On to B3, for which the binding result in the series with STF-1 + Pbx1 heterodimer [5] was “no binding”; in the series with STF-1 (IPF1/IDX-1/PDX1) [6] it was “binds”.
